Assay results taken from patent US20100092494A1 (BOARD OF TRUSTEES OF THE UNIVERSITY OF ILLINOIS, published 2010).

Experiments:
[1] = molecular target: T1, human basigin-2 (human, UniProt P35613 140-385); experiment: Sulfo-SBED biotin label transfer on HESC and CCL-2 cells, basigin immunoprecipitation, neutravidin-HRP blot
T1 construct: Endogenous glycosylated protein of HESC uterine fibroblasts and CCL-2 (HeLa) cells, found in the membrane fraction; also called basigin isoform 2; 50 kDa basigin protein
T1 sequence: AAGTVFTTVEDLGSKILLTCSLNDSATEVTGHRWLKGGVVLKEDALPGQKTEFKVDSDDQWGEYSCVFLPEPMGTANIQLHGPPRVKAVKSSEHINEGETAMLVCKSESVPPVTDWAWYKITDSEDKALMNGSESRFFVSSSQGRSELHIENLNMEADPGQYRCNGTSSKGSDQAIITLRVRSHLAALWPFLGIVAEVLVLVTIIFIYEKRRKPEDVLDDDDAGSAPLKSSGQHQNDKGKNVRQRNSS
Protocol: Biotin label transfer from rBSG to CCL-2 cells (HeLa) was performed by treating cells with increasing concentrations of SEED-labeled rBSG (0, 0.05, 0.5, 5, and 50 μg/ml) for 10 minutes at 37° C. Following 5 minutes of UV light treatment, cells were washed twice with PBS and total cell lysates collected using IP buffer. Proteins from labeled cells were precipitated with either neutravidin beads (FIGS. 7A and 7B) or immunoprecipitated with the P2C2 mAb (FIGS. 7C and 7D). Precipitated proteins were resolved by 15% SDS-PAGE in duplicate, and immunoblotted with either Streptavidin-HRP (FIGS. 7A and 7C) or with the R&D Systems anti-hEMMPRIN pAb (FIGS. 7B and 7D). The Santa Cruz goat anti-rabbit (anti-mouse, anti-human depleted)-HRP secondary antibody used for this experiment was previously shown to not cross-react with the P2C2 mAb. The basigin-2 band is indicated with an arrowhead and the basigin-3/rBSG band is indicated with an arrow. This experiment was performed twice with similar results.
Immunoprecipitation and Immunoblot Analysis. Immunoprecipitation of basigin was performed using the monoclonal antibody P2C2. Ten to […] of antibody added to 1 mg soluble protein was incubated overnight at 4° C. with rocking, and immune complexes were collected on protein G SEPHAROSE beads for 4 hours at 4° C. Immunoprecipitated proteins were resolved by SDS-PAGE using standard methods. […]

[2] = molecular target: the molecule itself; experiment: PFO-PAGE and immunoblot

B1: recombinant human basigin extracellular domain construct (rBSG) (ligand)
chain: WSHPQFEKAGTVFTTVEDLGSKILLTCSLNDSATEVTGHRWLKGGVVLKEDALPGQKTEFKVDSDDQWGEYSCVFLPEPMGTANIQLHGPPRVKAVKSSEHINEGETAMLVCKSESVPPVTDWAWYKITDSEDKALMNGSESRFFVSSSQGRSELHIENLNMEADPGQYRCNGTSSKGSDQAIITLRVRSHLHHHHHH
notes: also called recombinant basigin; soluble rBSG
binding result [1]: binds
binding result [2]: binds
